# Measurements: US20240052042A1 (Novartis, published 2024)
# Positions count from the first letter of the chain named. Where two headings read alike, the source gives them in different places.
# T1: human NPR1 on CHO-K1 cells in the presence of ANP (human, UniProt P01160 124-151)
# T1 construct: also called hNPR1 CHO K1 + 100 nM ANP
# T1 sequence: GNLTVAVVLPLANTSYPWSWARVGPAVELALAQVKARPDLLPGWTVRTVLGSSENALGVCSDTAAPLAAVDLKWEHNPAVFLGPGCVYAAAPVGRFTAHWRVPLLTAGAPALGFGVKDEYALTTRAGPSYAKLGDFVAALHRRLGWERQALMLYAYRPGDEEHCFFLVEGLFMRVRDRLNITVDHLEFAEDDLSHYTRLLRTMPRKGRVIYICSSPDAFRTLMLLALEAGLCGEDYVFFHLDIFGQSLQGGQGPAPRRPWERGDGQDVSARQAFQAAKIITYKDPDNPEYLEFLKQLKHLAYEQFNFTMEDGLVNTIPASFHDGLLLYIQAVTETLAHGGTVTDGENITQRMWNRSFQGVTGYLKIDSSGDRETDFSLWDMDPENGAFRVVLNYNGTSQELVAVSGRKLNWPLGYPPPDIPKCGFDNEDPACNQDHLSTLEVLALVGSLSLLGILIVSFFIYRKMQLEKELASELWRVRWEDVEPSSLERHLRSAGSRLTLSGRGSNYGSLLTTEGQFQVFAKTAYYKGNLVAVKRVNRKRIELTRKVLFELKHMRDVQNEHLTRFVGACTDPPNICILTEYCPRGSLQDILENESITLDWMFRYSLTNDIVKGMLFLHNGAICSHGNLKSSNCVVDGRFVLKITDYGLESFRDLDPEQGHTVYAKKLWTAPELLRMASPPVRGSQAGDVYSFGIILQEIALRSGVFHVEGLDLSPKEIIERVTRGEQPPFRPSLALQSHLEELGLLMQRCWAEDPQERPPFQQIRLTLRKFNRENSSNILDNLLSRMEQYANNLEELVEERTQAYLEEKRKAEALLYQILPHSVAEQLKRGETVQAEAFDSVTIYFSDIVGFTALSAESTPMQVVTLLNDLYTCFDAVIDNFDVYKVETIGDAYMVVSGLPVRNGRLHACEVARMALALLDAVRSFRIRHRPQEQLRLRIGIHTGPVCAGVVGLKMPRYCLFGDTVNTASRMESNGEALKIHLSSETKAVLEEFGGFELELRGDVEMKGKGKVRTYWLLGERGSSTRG
# T1 sequence (peptide): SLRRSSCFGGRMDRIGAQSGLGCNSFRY
# T2: human NPR1 on CHO-K1 cells (human, UniProt P16066 33-1061)
# T2 sequence: T1 sequence
# T3: human Natriuretic Peptide Receptor 1 (hNPR1) (human, UniProt P16066 33-473, limits assumed)
# T3 construct: pannings used NPR1-hFc; also called NPR1-hFc
# T3 sequence: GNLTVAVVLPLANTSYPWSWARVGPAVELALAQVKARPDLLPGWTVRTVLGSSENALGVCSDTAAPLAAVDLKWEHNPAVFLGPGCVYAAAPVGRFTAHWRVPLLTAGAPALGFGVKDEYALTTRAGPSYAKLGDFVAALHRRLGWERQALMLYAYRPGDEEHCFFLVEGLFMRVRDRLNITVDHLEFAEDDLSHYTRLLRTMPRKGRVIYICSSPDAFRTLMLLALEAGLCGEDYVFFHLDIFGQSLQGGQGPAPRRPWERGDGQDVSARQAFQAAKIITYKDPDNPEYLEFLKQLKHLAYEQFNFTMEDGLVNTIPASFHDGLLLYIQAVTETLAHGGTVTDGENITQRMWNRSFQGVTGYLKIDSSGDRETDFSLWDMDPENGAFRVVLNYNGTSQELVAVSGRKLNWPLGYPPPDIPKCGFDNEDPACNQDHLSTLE
# T4: rNPR1-ANP complex (rat, UniProt P01160 124-151 (human entry), limits assumed)
# T4 construct: rNPR1 antigen in the presence of ANP; also called rNPR1 + 100 nM ANP
# T4 sequence: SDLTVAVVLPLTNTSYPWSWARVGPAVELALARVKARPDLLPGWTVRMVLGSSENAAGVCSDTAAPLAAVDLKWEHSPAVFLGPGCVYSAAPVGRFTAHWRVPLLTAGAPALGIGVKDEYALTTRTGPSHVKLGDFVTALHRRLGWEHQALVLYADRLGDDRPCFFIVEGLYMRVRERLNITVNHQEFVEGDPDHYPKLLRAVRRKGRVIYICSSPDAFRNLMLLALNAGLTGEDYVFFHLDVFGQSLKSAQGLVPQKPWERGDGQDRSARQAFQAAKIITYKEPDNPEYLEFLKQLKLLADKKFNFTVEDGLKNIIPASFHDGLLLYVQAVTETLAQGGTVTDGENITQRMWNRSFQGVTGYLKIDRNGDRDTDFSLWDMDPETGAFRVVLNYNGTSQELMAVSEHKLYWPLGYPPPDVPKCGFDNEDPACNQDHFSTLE
# T4 sequence (peptide): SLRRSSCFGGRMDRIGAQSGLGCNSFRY
# T5: hNPR1-ANP complex (human, UniProt P01160 124-151, limits assumed)
# T5 construct: hNPR1 antigen in the presence of ANP; also called hNPR1 + 100 nM ANP
# T5 sequence: T3 sequence
# T5 sequence (peptide): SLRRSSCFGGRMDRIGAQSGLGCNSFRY
# B1: YY01 (IgG format) (antibody, V domains shown)
# VH: EVQLVESGGGLVQPGGSLRLSCAASGFTFSSYWISWVRQAPGKGLEWVANIKQSGSETYYVESVKGRFTISRDNAKNSLYLQMNSLRAEDTAVYYCARSLRRRSTEHAGFDVWGQGTLVTVSS
# VL: DIQMTQSPSSLSASVGDRVTITCRASQGISNYLAWYQQKPGKVPKLLIYAASTLQSGVPSRFSGSGSGTDFTLTISSLQPEDVATYYCQQADKFPYTFGQGTKVEIKR
# notes: also called YY01_LALA
# B2: XX07 (IgG format) (antibody, V domains shown)
# VH: QVQLLESGGGLVQPGGSLRLSCAASGFTFSSYWMNWVRQAPGKGLEWVSAISSDGSYTYYADSVKGRFTISRDNSKNTLYLQMNSLRAEDTAVYYCARDRYSMIYSYGAGAFDYWGQGTLVTVSS
# VL: DIQMTQSPSSLSASVGDRVTITCRASQGISSYLAWYQQKPGKAPKLLIYTASTLQSGVPSRFSGSGSGTDFTLTISSLQPEDFATYYCQQIWTVPRTFGQGTKVEIK
# B3: XX12 (IgG format) (antibody, V domains shown)
# VH: B2 VH
# VL: B2 VL with T93M, V94A
# B4: YY02 (IgG format) (antibody, V domains shown)
# VH: EVQLVESGGGLVKPGGSLRLSCAASGFTFSSYSMNWVRQAPGKGLEWVSSISSSSSYIYYADSVKGRFTISRDNAKNSLYLQMNSLRAEDTAVYYCARSGYRGVYGFDYWGQGTLVTVSS
# VL: DIQMTQSPSSVSASVGDRVTITCRASQGISSWLAWYQQKPGKAPKLLIYAASSLQSGVPSRFSGSGSGTDFTLTISSLQPEDFATYYCQQYYHSPLTFGQGTKVEIKR
# notes: IgG format; also called YY02_LALA
# B5: YY03 (IgG format) (antibody, V domains shown)
# VH: EVQLLESGGGLVQPGGSLRLSCAASGFTFSSYAISWVRQAPGKGLEWVSAISGSGGSTYYAESVKGRFTISRDNSKNTLYLQMNSLRAEDTAVYYCARESGYVYYLKFDYWGQGTLVTVSS
# VL: B4 VL with V11L, G28S, W32Y, A34N, Y91H, Y92V, H93R, S94V, L96I
# notes: IgG format; also called YY03_LALA
# Assays:
# [1] = target: T1, human NPR1 on CHO-K1 cells in the …; assay: flow cytometry (FL2-H) on hNPR1 CHO-K1 cells with saturating ANP, IgG titrated; control parental CHO-K1 [panel YY01]
# [2] = target: T2, human NPR1 on CHO-K1 cells; assay: cell-based or functional assay
# [3] = target: T1, human NPR1 on CHO-K1 cells in the …; assay: flow cytometry, hNPR1 CHO-K1 cells, IgG
# [4] = target: T2, human NPR1 on CHO-K1 cells; assay: flow cytometry, hNPR1 CHO-K1 cells, IgG
# [5] = target: T3, human Natriuretic Peptide Receptor 1 …; assay: ELISA, 1 µM IgG; design: unit not given here
# rNPR1-ANP complex [6] = target: T4, rNPR1-ANP complex; assay: ELISA, 1 µM IgG; design: unit not given here
# hNPR1-ANP complex [7] = target: T5, hNPR1-ANP complex; assay: ELISA, 1 µM IgG; design: unit not given here
# hNPR1-ANP complex [8] = target: T5, hNPR1-ANP complex; assay: FRET ANP competition assay, IgG titrated on hNPR1 with Cy5-labeled ANP; negative values mean more ANP signal [Cont.), panel XX07]
# Protocol: The same 31 IgGs were tested for ANP competition using a Fluorescence Resonance Energy Transfer (FRET)-based assay in which the NPR1-specific antibodies competed with ANP for binding to NPR1. In this FRET based assay (see FIG. 3), Eu-labeled Streptavidin (for measurement of IgGs) or Eu-labeled anti-hFc antibody (for measurement of FabCys) was used as an energy donor, while Cy5-labeled ANP was used as an acceptor (for all measurements). The resulting fluorescent signal was decreased by ANP-competitive antibodies. The assay was performed as follows: antibodies were mixed with NPR1 and incubated for 5 minutes at room temperature. […] After a further 60-minute incubation, readout was performed using a TECAN Infinite M1000 Pro using an excitation wavelength of 317 nm and an emission wavelength of 665 nm. Percentage of ANP competition was calculated according to the following formulae: […]
# Furthermore, the clones were tested via ELISA for binding to the following antigens: human NPR1, constitutively active human NPR1 mutant (W74R), rat NPR1, human NPR3 (counter target), each in the absence and presence of ANP, and BSA. The clones were also analyzed by flow cytometry for binding to human NPR1 expressing CHO K1 cells in absence and presence of ANP (100 nM) and to parental CHO K1 cells.
# [9] = target: T1, human NPR1 on CHO-K1 cells in the …; assay: flow cytometry (FL2-H) on hNPR1 CHO-K1 cells with saturating ANP, IgG titrated; control parental CHO-K1 [Cont.), panel XX07]
# [10] = target: T1, human NPR1 on CHO-K1 cells in the …; assay: flow cytometry (FL2-H) on hNPR1 CHO-K1 cells with saturating ANP, IgG titrated; control parental CHO-K1 [Cont.), panel XX12]
# hNPR1-ANP complex [11] = target: T5, hNPR1-ANP complex; assay: FRET ANP competition assay, IgG titrated on hNPR1 with Cy5-labeled ANP; negative values mean more ANP signal [Cont.), panel XX12]
# Protocol: The same 31 IgGs were tested for ANP competition using a Fluorescence Resonance Energy Transfer (FRET)-based assay in which the NPR1-specific antibodies competed with ANP for binding to NPR1. In this FRET based assay (see FIG. 3), Eu-labeled Streptavidin (for measurement of IgGs) or Eu-labeled anti-hFc antibody (for measurement of FabCys) was used as an energy donor, while Cy5-labeled ANP was used as an acceptor (for all measurements). The resulting fluorescent signal was decreased by ANP-competitive antibodies. The assay was performed as follows: antibodies were mixed with NPR1 and incubated for 5 minutes at room temperature. After addition of the Eu-labeled donor and incubation for 30 minutes at room temperature, the Cy5-ANP solution was added. After a further 60-minute incubation, readout was performed using a TECAN Infinite M1000 Pro using an excitation wavelength of 317 nm and an emission wavelength of 665 nm. Percentage of ANP competition was calculated according to the following formulae: […]
# rNPR1-ANP complex [12] = target: T4, rNPR1-ANP complex; assay: ELISA, IgG titrated on coated antigen with ANP (250 fold molar excess), fluorescence [Cont.]
# hNPR1-ANP complex [13] = target: T5, hNPR1-ANP complex; assay: as above
# [14] = target: T2, human NPR1 on CHO-K1 cells; assay: flow cytometry (FL2-H) on hNPR1 CHO-K1 cells without ANP, IgG titrated; control parental CHO-K1 [panel YY02]
# [15] = target: T1, human NPR1 on CHO-K1 cells in the …; assay: flow cytometry (FL2-H) on hNPR1 CHO-K1 cells with saturating ANP, IgG titrated; control parental CHO-K1 [panel YY02]
# [16] = target: T3, human Natriuretic Peptide Receptor 1 …; assay: ELISA, IgG titrated on coated antigen, fluorescence [Cont.]
# rNPR1-ANP complex [17] = target: T4, rNPR1-ANP complex; assay: ELISA, IgG titrated on coated antigen with ANP (250 fold molar excess), fluorescence [Cont.]; remark: listed apart in the source
# hNPR1-ANP complex [18] = target: T5, hNPR1-ANP complex; assay: as above; remark: listed apart in the source
# [19] = target: T1, human NPR1 on CHO-K1 cells in the …; assay: flow cytometry (FL2-H) on hNPR1 CHO-K1 cells with saturating ANP, IgG titrated; control parental CHO-K1 [panel YY03]
binder,measurement,setting,value
B1,EC50 (read off the curve),[1],~200 pM
same,"cGMP conc [nM] at 1 µM IgG, +0.075 nM ANP",[2],14 nM
same,"cGMP conc [nM] at 1 µM IgG, without ANP",[2],5 nM
same,flow cytometry S/BG at 1 µM IgG,[3],21 S/BG
same,flow cytometry S/BG at 1 µM IgG,[4],35 S/BG
same,ELISA binding at 1 µM IgG,[5],54
same,ELISA binding at 1 µM IgG,rNPR1-ANP complex [6],50
same,ELISA binding at 1 µM IgG,hNPR1-ANP complex [7],76
B2,EC50 (read off the curve),hNPR1-ANP complex [8],~300 pM
same,EC50 (read off the curve),[9],~2000 pM
B3,EC50 (read off the curve),[10],~800 pM
same,EC50 (read off the curve),hNPR1-ANP complex [11],~400 pM
B4,EC50 (read off the curve),rNPR1-ANP complex [12],~300 pM
same,EC50 (read off the curve),hNPR1-ANP complex [13],~800 pM
same,EC50 (read off the curve),[14],~200000 pM
same,EC50 (read off the curve),[15],~1000 pM
B5,binding result,[16],binds
same,EC50 (read off the curve),rNPR1-ANP complex [17],~200 pM
same,EC50 (read off the curve),hNPR1-ANP complex [18],~1000 pM
same,EC50 (read off the curve),[19],~2000 pM
